Data reported in article PMC9063451.

B1: NbBotI-17 (VHH)
VHH: QVQLQESGGGPVQAGGSLRLSCAASGFTDSNKNVHWFRQVPGKQCERVSTITSNGVTNYADSVKGRFTASRDNSKNTVYLQMNTLKTEDTAVYYCVSVYIWESIGPSQRCRGQGTQVTVSS
B2: NbBotI-01 (VHH)
VHH: QVQLQESGGGLVQPGGSLRLSCAASGFSFTVYYMSWVRQTPGKGLEWVSGINRDGSIIDYADSVKGRFTISRDNAENTLYLEMNSRKSEDTALNDCTPHVRGGRYRTRGQGTQVTVSS

Key:
[1] = target: BotI-like toxin (Buthus occitanus tunetanus) (UniProt P01488)
[2] = target: BotI-like toxin (Buthus occitanus tunetanus) (UniProt P01488); assay: SPR

Binder	neutralisation of the toxin's lethality in Swiss mice (i.c.v. injection after 1 h preincubation at 37°C); 2 or 4 molar excess of Nb: 50% neutralisation at 6 and 7 LD50 (LD50 of toxin (50% neutralised)) [1]	Kd [2] [nM]	koff [2] [s⁻¹]	kon [2] [M⁻¹ s⁻¹]
B1	7	4.72	0.0308	6.52e+06
B2	–	0.0953	0.000464	4.87e+06
